According to US20120156193A1:

Molecular target: A beta 1-40 oligomer (synthetic A beta1-40, HCl form, 0.1 mg/ml in PBS, incubated at 37 degrees C for one hour) (UniProt P05067)
Assay: SPR, Biacore 3000, A beta oligomer on CM5 chip, antibody as analyte

- Kd: 2.91 nM
- koff: 0.000168 s⁻¹
- kon: 57800 M⁻¹ s⁻¹
Substance: Anti-A beta antibody 6E10 (Covance Immuno-Technologies)
